Measured values taken from patent US20090017017A1 (SYMPHOGEN A S, published 2009).

T1: Rhesus D antigen (human, UniProt Q02161 2-417)
T1 construct: whole, on cells; Presented on RhD(+) erythrocytes; also called RhD; RhD antigen
T1 sequence (looked up): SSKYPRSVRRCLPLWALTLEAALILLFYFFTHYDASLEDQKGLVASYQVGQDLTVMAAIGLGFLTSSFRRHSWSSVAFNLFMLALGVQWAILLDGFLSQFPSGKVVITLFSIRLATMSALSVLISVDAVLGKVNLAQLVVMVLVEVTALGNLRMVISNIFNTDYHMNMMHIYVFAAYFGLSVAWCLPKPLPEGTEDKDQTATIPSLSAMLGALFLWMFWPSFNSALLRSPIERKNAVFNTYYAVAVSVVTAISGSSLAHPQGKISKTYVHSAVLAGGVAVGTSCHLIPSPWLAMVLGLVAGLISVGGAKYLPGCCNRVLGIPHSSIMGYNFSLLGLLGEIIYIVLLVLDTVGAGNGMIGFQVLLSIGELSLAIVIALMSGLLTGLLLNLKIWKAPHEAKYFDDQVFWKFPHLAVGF

B1: RhD161.119E09 (Fab, V domains shown)
VH: EVQLVESGGGVVQSGRSLRLSCAASGFTFSNNGMHWVRQAPGKGLEWVAFIWYDGSNKYYADSVKGRFTISRDNSKNTLYLQMDGLRAEDSAVYYCAREEIAARLYSRYHYAMDVWGQGTMVTVSS
VL: DIQMTQSPSFLSASVGDRVTITCRASQGIRRYLAWFQQKPGKAPKLLIFSASTLQSGVPSRFSGSGSGTEFTLTISSLQPEDFATYYCQQLSSYPPYTFGQGTKLEIKR
notes: Tested as Fab in E. coli periplasmic extract (VH on human gamma 1 CH1, vector Em351)
B2: RhD160.119C07 (Fab, V domains shown)
VH: EVQLVESGGGVVQPGRSLRLSCAASGFTFSNYGMHWVRQAPGKGLEWVAVIWYDGSNRFYADSVKGRFTISRDNSKNTLYLQMNNLRAEDTALYSCAREITTTVVVRRHYLMDIWGQGTTVTVSS
VL: DIQLTQSPSSLSASVGDRVSITCRASQGISNSLAWYQQKPGKVPKLLIYAASTLQSGVPSRFSGGGSGTDFTLTISSLQPEDVATYYCQKYNSAPFAFGPGTKVDIKR
notes: as for B1
B3: RhD296.126A03 (Fab, V domains shown)
VH: EVQLVESGGGVVQPGRSLRLSCEASGFTFSNYGMHWFRQAPGKGLEWVAIIWYDGSNKHYADSVKGRFTISRDNSKNTLYLQMNSLRAEDTAVYFCAREIASRGYSRYLYYFDSWGQGTLVTVSS
VL: DIQMTQSPSSLSASVGDRVTITCRASQSISSYLNWYQQKPGKAPKLLIFAASSLQSGVPSRFSGSGSGTDFSLTISSLQPEDFATYYCQQSYSSLALTFGGGTKVEIKR
notes: as for B1
B4: RhD300.134H09 (Fab, V domains shown)
VH: QVQLVESGGGVVQPGRSLRLSCAASGFTFSSYGMHWVRQAPGKGLEWVAVIWYDGSNKYYADSVKGRFTISRDNSKNTLYLQMNSLRAEDTAVYYCAREFYTRSGLWSQGYSYYMDVWGKGTTVTVSS
VL: QTVVTQEPSFSVSPGGTVTLTCGLSSGSVSARYYPSWYQQTPGQPPRTLIHSTNTRSSGVPDRFSGSILGNKAALTITGAQADDESDYYCVLYMGSGPWVFGGGTKLTVLG
notes: as for B1
B5: RhD299.127A12 (Fab, V domains shown)
VH: QVQLVESGGGVVQPGRSLRLSCAASGFTFSNFGMHWVRQAPGKGLEWVAVIWYDGSNKDYADSVKGRFTISRDNSKRTLYLQMNSLRAEDTAVYYCARELARGRLRDLDYWGQGTLVTVSS
VL: QAVVTQEPSLTVSPGGTVTLTCASSTGAVTTGYYPNWFQQKPGQAPRALIYSTSKKHSWTPARFSGSLLGGKAALTLSGVQPEDEAEYYCLLFYGGAQLGVFGGGTKLTVLG
notes: as for B1
B6: RhD302.160B10 (Fab, V domains shown)
VH: QVQLVESGGGVVQPGRSLRLSCAASGFTFSSYGMHWVRQAPGKGLEWVAFISYDGSNKYYADSVKGRFTISRDNSKNTLSLQMNSLRAEDTAVYYCAKEHGYYRSSWYRNYYYYGMDVWGQGTTVTVSS
VL: DIQLTQSPSSLSASVGDRVTITCRASQSISSYLNWYKQRPGKAPKLLIYAASTLQSGVPSRFSGSGSGTDFALTISSLQAEDFATYYCQQTYSTLWTFGQGTKVEITR
notes: as for B1
B7: RhD303.160B11 (Fab, V domains shown)
VH: QVQLVESGGGVVQPERSLRLSCAASGFTFSSYGMHWVRQAPGKGLEWVAVISYDGSNKYYADSVKGRFTISRDNSKNTLYLQMNSLRAEDTAVYYCAKDEVGYSSSWYRRYYYYAMDVWGQGTTVTVSS
VL: EIVLTQSPGTLSLSPGETATLSCRASQSVSDRDLAWYQQKSGQSPRLLMYGGSTRAPGIPVRFSGSGSGTEFTLTISSLQSEDFAIYYCQHYHDWPPTFGQGTRLEIKR
notes: as for B1
B8: RhD301.160A04 (Fab, V domains shown)
VH: QVQLVESGGGVVQPGRSLRLSCAASGFTFSSYGMHWVRQAPGKGLEWVAVIWFDGGNKYYADSAKGRFTISRDNSKNTLYLQMNSLRAEDTAVYYCARDASVLSGLVTRRLVYYGMDVWGQGTTVTVSS
VL: DVVMTQSPLSLPVTPGEPASISCRSSQSLLHRNGYNYLNWYLQKPGQSPQLLIYLGSNRASGVPDRFSGSGSGTDFTLKISGVEAEDVAFYYCMQGLRTPYTFGQGTKLEIKR
notes: as for B1

What follows are binders tested against T1, Rhesus D antigen (assay: agglutination assay, Fab periplasmic extract on RhD(+)/RhD(-) RBC mix).
Protocol: (§1) After each round of panning single colonies were picked for analysis of their binding properties to red blood cells in agglutination assays. Briefly, single colonies were inoculated into 2×YT/100 μg/mL carbenicillin/1% glucose and shaken overnight at 37° C. The next day, DeepWell plates were inoculated using 900 μl 2×YT/100 μg/mL carbenicillin/0.1% glucose and 10 μl overnight culture. The plates were shaken for two hours at 37° C., before Fab induction was performed with addition of 300 μl 2×YT/100 μg/mL carbenicillin/0.25 mM IPTG per well. The plate was shaken overnight at 30° C. The following day, the bacteria were pelleted by centrifugation (3200×g, 4° C., 10 minutes), and re-suspended in 100 μl of 0.8 M NaCl, 0.2×PBS, 8 mM EDTA, and incubated for 15 minutes on ice in order to perform a periplasmic extraction of the Fab fragments. The plate was transferred to −20° C. and finally the suspension was thawed and centrifugation was performed for 10 minutes at 4° C. and 3200×g. The periplasmic extract was used in ELISA assays for analysis of Fab content and in agglutination assays to evaluate the binding potential of the individual Fab fragments.
(§2) The agglutination assay was performed as follows: RhD(−) and RhD(+) RBC were mixed in a 1:1 ratio, and washed 3 times in PBS. After the final wash, the cell mix was re-suspended in 1% BSA in PBS at a density of 10% cells, 50 μl was added to each well of a 96-plate. Periplasmic extracts were added to the wells. As a positive control Rhesogamma P immunoglobulin (Aventis) was used according to the manufacturer's instructions. The plates were incubated for one hour at room temperature with gentle shaking. The cells were washed three times with PBS, before the secondary antibody was added (goat anti-human Fab/FITC conjugate, Sigma F5512) in a 1:100 dilution. The plates were left for agglutination for one hour at room temperature without shaking. Fab fragments positive in the agglutination assay was determined by visual inspection, and recorded by taking a picture. Quantization of the binding activity of the Fab fragments was performed by FACS analysis of the agglutination samples.
B1: binds.
B2: binds.
B3: binds.

What follows are binders tested against T1, Rhesus D antigen (assay: Fab screening on RBC (agglutination, FACS)).
Protocol: as §1, §2
B4: binds.
B5: binds.
B6: binds.
B7: binds.
B8: binds.
